Data on 17 molecules can be found in patent US20210361776A1 (Seagen, published 2021).

Residue numbers refer to the chain shown, from its start. Names may count otherwise.

To fix the notation:
B1: murine GPC3-1 antibody (antibody, V domains shown)
VH: QVQLQQSGAELVRPGASVTLSCKASGYTFTDYEMHWVKQTPVHGLEWIGGIDPETGGTAYNQKFKGKATLTADKSSSTAYMDLRSLTSEDSAVYYCGRYYSFAYWGQGTLVTVSA
VL: DVLMTQTPLSLPLSLGDQASISCRSSQSIVHSNGNTYLQWFLQKPGQSPKLLIYKVSNRFSGVPDRFSGSGSGTDFTLKIGRVEAEDLGVYYCFQVSHVPYTFGGGTKLVMK
notes: Murine hybridoma IgG; also called mGPC3-1
B2: hGPC3-1 HCLB (antibody, V domains shown)
VH: EVQLVQSGAEVKKPGATVKISCKASGYTFTDYEMHWVQQAPGKGLEWIGGIDPETGGTAYNQKFKGRATLTADKSTDTAYMELSSLRSEDTAVYYCGRYYSFAYWGQGTLVTVSS
VL: DVVMTQSPLSLPVTLGQPASISCRSSQSIVHSNGNTYLQWFQQRPGQSPRLLIYKVSNRFSGVPDRFSGSGSGTDFTLKISRVEAEDVGVYYCFQVSHVPYTFGQGTKLEIK
notes: Kabat positions
B3: hGPC3-1 HALC (antibody, V domains shown)
VH: B2 VH with E1Q, T17S, I20V, Q38R, K43Q, K74T, D77S, S84R, E89D, G97A
VL: B2 VL with R50K, E110V, I111M
notes: Kabat positions
B4: hGPC3-1 HCLA (antibody, V domains shown)
VH: B2 VH
VL: B2 VL with L51R
notes: Kabat positions
B5: hGPC3-1 HBLA (antibody, V domains shown)
VH: B2 VH with A24V, I48M, A68V
VL: B2 VL with L51R
notes: Kabat positions
B6: hGPC3-1 HDLA (antibody, V domains shown)
VH: B2 VH with Q38K, R67K
VL: B2 VL with L51R
notes: Kabat positions
B7: hGPC3-1 HBLB (antibody, V domains shown)
VH: B2 VH with A24V, I48M, A68V
VL: B2 VL
notes: Kabat position
B8: hGPC3-1 HDLB (antibody, V domains shown)
VH: B2 VH with Q38K, R67K
VL: B2 VL
notes: Kabat positions
B9: hGPC3-1 HDLC (antibody, V domains shown)
VH: B2 VH with Q38K, R67K
VL: B2 VL with R50K, E110V, I111M
notes: Kabat positions
B10: hGPC3-1 HCLC (antibody, V domains shown)
VH: B2 VH
VL: B2 VL with R50K, E110V, I111M
notes: Kabat positions
B11: hGPC3-1 HBLC (antibody, V domains shown)
VH: B2 VH with A24V, I48M, A68V
VL: B2 VL with R50K, E110V, I111M
notes: Kabat positions
B12: hGPC3-1 HALB (antibody, V domains shown)
VH: B2 VH with E1Q, T17S, I20V, Q38R, K43Q, K74T, D77S, S84R, E89D, G97A
VL: B2 VL
notes: Kabat position
B13: hGPC3-1 HBLB-V (antibody, V domains shown)
VH: B2 VH with A24V, I48M, A68V
VL: B2 VL with G34V
notes: Kabat position
B14: hGPC3-1 HBLB-Q (antibody, V domains shown)
VH: B2 VH with A24V, I48M, A68V
VL: B2 VL with N33Q
notes: Kabat positions
B15: hGPC3-1 HBLE (antibody, V domains shown)
VH: B2 VH with A24V, I48M, A68V
VL: B2 VL with G34A
notes: Only variable regions are tied to the antibody; also called lead humanized GPC3-1 antibody
B16: hGPC3-1 HBLD (antibody, V domains shown)
VH: B2 VH with A24V, I48M, A68V
VL: B2 VL with N33D
notes: Kabat positions
B17: hGPC3-1ec (HBLE) (antibody, V domains shown)
VH: B2 VH with A24V, I48M, A68V
VL: B2 VL with G34A
notes: HBLE variable regions on IgG1 with a cysteine substitution at position 239 of the heavy chain (S239C, EU index); 'ec' marks this; Tested unconjugated; also called humanized GPC3-1ec

T2 sequence (P51654 25-559 limits assumed): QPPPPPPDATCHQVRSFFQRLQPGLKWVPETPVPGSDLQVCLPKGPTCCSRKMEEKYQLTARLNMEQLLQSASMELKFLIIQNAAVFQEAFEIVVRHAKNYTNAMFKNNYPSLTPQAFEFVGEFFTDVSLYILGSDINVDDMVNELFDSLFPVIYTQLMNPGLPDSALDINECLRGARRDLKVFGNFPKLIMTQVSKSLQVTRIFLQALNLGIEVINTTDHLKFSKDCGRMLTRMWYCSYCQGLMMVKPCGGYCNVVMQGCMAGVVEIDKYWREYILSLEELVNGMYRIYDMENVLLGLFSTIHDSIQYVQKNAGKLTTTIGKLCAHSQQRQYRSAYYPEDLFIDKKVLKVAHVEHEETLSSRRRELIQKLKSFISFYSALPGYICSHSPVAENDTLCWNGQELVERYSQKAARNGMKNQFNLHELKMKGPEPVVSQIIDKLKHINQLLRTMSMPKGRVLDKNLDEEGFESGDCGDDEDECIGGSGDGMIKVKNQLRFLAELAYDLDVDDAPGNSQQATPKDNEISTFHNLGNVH

One experiment deals with T1, human Glypican 3 (GPC3) on GPC3-positive cells (human, UniProt P51654 25-554).
T1 construct: whole, on cells; the methods say only 'GPC3-positive cells'; also called hGPC3
T1 sequence (P51654 25-554 limits assumed): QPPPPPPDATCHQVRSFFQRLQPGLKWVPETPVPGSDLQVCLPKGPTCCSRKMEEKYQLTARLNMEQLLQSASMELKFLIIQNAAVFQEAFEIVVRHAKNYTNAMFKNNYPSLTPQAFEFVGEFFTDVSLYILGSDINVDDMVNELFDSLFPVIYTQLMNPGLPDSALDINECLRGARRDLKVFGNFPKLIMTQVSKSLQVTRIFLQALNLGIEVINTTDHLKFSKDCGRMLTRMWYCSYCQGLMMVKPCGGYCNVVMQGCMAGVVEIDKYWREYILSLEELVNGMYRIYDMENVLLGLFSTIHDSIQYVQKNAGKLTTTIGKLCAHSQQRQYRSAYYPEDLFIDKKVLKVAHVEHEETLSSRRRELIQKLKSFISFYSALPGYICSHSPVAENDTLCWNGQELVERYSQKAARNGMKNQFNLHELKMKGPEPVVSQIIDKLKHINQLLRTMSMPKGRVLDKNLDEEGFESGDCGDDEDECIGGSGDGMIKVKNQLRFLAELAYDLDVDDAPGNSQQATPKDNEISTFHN
Kind of experiment: competition with AlexaFluor-488 labeled mGPC3-1 on GPC3-positive cells, flow cytometry. The protocol:
(§1) Cells were centrifuged, washed 3 times with PBS, and resuspended in 125 μL of a PBS+2% FBS solution. […] The EC50 was extrapolated by fitting the data to a sigmoidal dose-response curve with variable slope.
For orientation: EC50 means the concentration giving half of the maximal effect. Higher therefore signals weaker potency. B1 came in with a 50% effective concentration (EC50) of 9 nM.

The molecule B2 showed an EC50 of 18 nM.

For B3, the EC50 amounted to 63 nM. The same measure, in the same setting: the same measure for B4: 76 nM; for B5: 203 nM; for B6: 149 nM.

In turn, B7 had an EC50 of 14 nM. As for B8, the EC50 stood at 10 nM.

On to B9, for which the midpoint of the response, the EC50, lay at 13 nM. The same measure, in the same setting: the same measure for B10: 19 nM. Consider B11, for which the EC50 was determined as 25 nM. On the same count and under the same terms, under B12 stands 91 nM.

In a further experiment the target is T1, human Glypican 3 (GPC3) on …. Described as above. The source holds these as a separate data set. The protocol:
as §1
B13 returned an EC50 of 4 nM. That is a single-digit nanomolar value. The same measure, in the same setting: under B14 stands 7 nM; under B7, 3 nM; under B15, 3 nM.

B16 yielded an EC50 of 74 nM.

A further experiment addresses T2, Human GPC3 (hGPC3 GP3-H5258, AcroBiosystems), biotinylated (human, UniProt P51654 25-559, biotinylated with Pierce NHS-LC-LC-Biotin at 1.5:1 biotin/protein ratio).
T2 construct: Bought protein; also called immobilized hGPC3
Kind of experiment: BLI (Octet Red 384), biotinylated hGPC3 on SAX biosensors, hGPC3-1ec as analyte, bivalent binding, 1:1 fit; bivalent binding, kinetic 1:1 fit (kdiss/kon). The procedure:
(§2) Human GPC3 (hGPC3 GP3-H5258) was purchased from AcroBiosystems and biotinylated using Pierce NHS-LC-LC-Biotin at a molar ratio of 1.5:1 biotin/protein ratio. Biolayer interferometry (BLI) was performed on an Octet Red 384 system (ForteBio) with High Precision Streptavidin (SAX) Biosensors and GPC3 as the probe using hGPC3-1ec as the analyte.
A general note: In BLI a coated tip is dipped into the sample, and binding shifts an interference pattern.
For the molecule B17, the Kd is 0.204 nM.

Another experiment concerns the target T2, Human GPC3 (hGPC3 GP3-H5258, …). Kind of experiment: BLI/SPR steady state: 600 second maximum response against concentration, half maximal binding (FIG. 6); binding affinity from FIG. 6, not the bivalent kinetic fit. The procedure: (Left) Multiple sensorgrams represent several concentrations (400, 160, 64, 25.6, 10.2, 4.1, and 1.64 nM) of hGPC3-1ec associating with immobilized hGPC3. (Right) The KD was determined by plotting the 600 second maximum response for each concentration and was defined by half maximal binding.
as §2
Consider B17, for which the Kd turned out to be 14 nM.

The next experiment has the same target. Kind of experiment: BLI (Octet Red 384), biotinylated hGPC3 on SAX biosensors, hGPC3-1ec as analyte, bivalent binding, 1:1 fit, association 600 sec; bivalent binding, kinetic 1:1 fit, association of 600 sec. The protocol:
as §2
For orientation: kon means a measure of how fast the partners come together. Regarding B17, the on-rate constant (kon) came to 113000 M⁻¹ s⁻¹.

A further experiment has the same target. As to the kind of experiment: BLI (Octet Red 384), biotinylated hGPC3 on SAX biosensors, hGPC3-1ec as analyte, bivalent binding, 1:1 fit, dissociation 1800 sec; bivalent binding, kinetic 1:1 fit, disassociation of 1800 sec. The protocol: as §2
In general, koff refers to the rate constant with which the complex falls apart. Regarding B17, the koff worked out at 2.3e-05 s⁻¹.
